These results are taken from PMC12623744 (Scientific Reports, 2025).

Like-named read-outs stand apart in the source and are kept apart here.

One assay concerns the target LIGHT protein (UniProt O43557 1-240). As to the kind of experiment: spectral shift (SpS); Monolith X; HVEM-His labelled with His-Tag Labeling Kit RED-tris-NTA 2nd Generation, final 50 nM; peptides 2 µM to 6.1 pM; PBS-T (0.05% Tween-20, 0.3 M NaCl, pH 7.4); fluorescence ratio 670/650 nm; 25 °C; apparent Kd (peptides aggregated at higher concentrations). Conditions: both partners purified.

The target in assay [1] is T1, HVEM-His protein (Homo sapiens, UniProt Q92956).
T1 construct: purchased ACROBiosystems
T1 sequence (Q92956 39-283): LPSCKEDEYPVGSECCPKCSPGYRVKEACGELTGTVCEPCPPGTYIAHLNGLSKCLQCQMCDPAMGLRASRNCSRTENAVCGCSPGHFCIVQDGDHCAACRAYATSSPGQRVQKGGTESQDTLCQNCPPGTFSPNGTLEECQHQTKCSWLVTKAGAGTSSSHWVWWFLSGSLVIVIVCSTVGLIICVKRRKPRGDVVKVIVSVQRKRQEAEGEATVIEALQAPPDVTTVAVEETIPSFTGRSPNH
Put plainly: Spectral shift (SpS) affinity of peptides to HVEM. Format: binding. The following applies: spectral shift (Monolith X, 670/650 nm), 50 nM RED-tris-NTA labelled HVEM-His, ligand 2 µM to 6.1 pM, PBS-T pH 7.4 with 0.3 M NaCl, 25 °C; mean of triplicate; apparent, approximate value only. Here is the method: Based on the computer analyses conducted for the designed peptides in complex with the HVEM, five compounds – peptides light1, light2, light3, light4, and light3_E178L were selected for experimental validation and their affinity to HVEM was evaluated using SpS.Fluorescence intensity was measured at 670 and 650 nm (Figure S4). […] Due to the fact that peptides at higher concentrations aggregated, it was not possible to fully determine the Kd. Therefore, only the apparent Kd values were determined and were used for HVEM binding strength comparison. Note that apparent Kd is only approximate value and should be used only for qualitative comparison.
SpS experiments were conducted using the Monolith X instrument (Nanotemper, Munich, Germany). Protein labelling was performed using the His-Tag Labeling Kit RED-tris-NTA 2nd Generation (Nanotemper, Munich, Germany). To prepare the fluorescent dye solution at concentration 0.1 µM, 2 µL of a 5 µM dye stock was diluted in 98 µL of deionized water. […] The mixtures were loaded into Monolith X-compatible capillary tubes, and fluorescence ratios (670/650 nm) were measured at 40% excitation power and average IR laser power at a temperature of 25 °C. Data were analyzed using MO.Control 2 software (version 2.5.4, NanoTemper, Munich, Germany). […]

Assay [2] deals with T1, HVEM-His protein. Conditions: SpS technique; previously determined by the authors; read-out: Kd of LIGHT binding to HVEM; cited from earlier work.
In another assay the target is HVEM. More on the design: method as in 2 sources, ref 11 = [11]; PMID 25087510; doi:10.1016/j.str.2014.06.013; 11. Liu W Mechanistic basis for functional promiscuity in the TNF and TNF receptor superfamilies: structure of the LIGHT:DcR3 assembly Structure 2014 22 1252 10.1016/j.str.2014.06.013 25087510 PMC4163 ||| ref 41 = [41]; PMID 20175993; doi:10.1016/j.bbrc.2010.02.119; 41. Morishige T Creation of a lysine-deficient LIGHT mutant with the capacity for site-specific pegylation and low affinity for a decoy receptor Biochem. Biophys. Res. Commun. 2010 393 888 893 10.1016. The following applies: other research group, read-out: Kd of HVEM/LIGHT complex, cited from earlier work.

B1: HVEM-His protein (receptor, UniProt Q92956 39-202, looked up)
chain: LPSCKEDEYPVGSECCPKCSPGYRVKEACGELTGTVCEPCPPGTYIAHLNGLSKCLQCQMCDPAMGLRASRNCSRTENAVCGCSPGHFCIVQDGDHCAACRAYATSSPGQRVQKGGTESQDTLCQNCPPGTFSPNGTLEECQHQTKCSWLVTKAGAGTSSSHWV
modifications: labelled with RED-tris-NTA 2nd Generation dye on the His tag (spectral shift only)
notes: Herpes virus entry mediator (HVEM); No catalogue number printed; also called herpes virus entry mediator; source: bought: ACROBiosystems
As to B1, the Kd in the assay with LIGHT protein was determined as 920 nM.

B2: LIGHT: LIGHT protein, TNFSF ligand of HVEM (protein)
chain: MEESVVRPSVFVVDGQTDIPFTRLGRSHRRQSCSVARVGLGLLLLLMGAGLAVQGWFLLQLHWRLGEMVTRLPDGPAGSWEQLIQERRSHEVNPAAHLTGANSSLTGSGGPLLWETQLGLAFLRGLSYHDGALVVTKAGYYYIYSKVQLGGVGCPLGLASTITHGLYKRTPRYPEELELLVSQQSPCGRATSSSRVWWDSSFLGGVVHLEAGEKVVVRVLDERLVRLRDGTRSYFGAFMV
Take B2: the Kd is 920 nM with HVEM-His protein [1], 920 nM in the assay with HVEM-His protein [2], 18.7 nM at HVEM (ref 11) and 1.5 nM on HVEM (ref 41).
